Experimental data reported in US20110239319, “Use of Endonucleases for Inserting Transgenes Into Safe Harbor Loci” (published 2011).

Key:
Experiment in all cases: cell_activity; endogenous locus, 293H
SCOH-SH18-b11-C.2 = molecular target: T1, SCOH-SH18-b11-C.2 (artificial)
T1 chain: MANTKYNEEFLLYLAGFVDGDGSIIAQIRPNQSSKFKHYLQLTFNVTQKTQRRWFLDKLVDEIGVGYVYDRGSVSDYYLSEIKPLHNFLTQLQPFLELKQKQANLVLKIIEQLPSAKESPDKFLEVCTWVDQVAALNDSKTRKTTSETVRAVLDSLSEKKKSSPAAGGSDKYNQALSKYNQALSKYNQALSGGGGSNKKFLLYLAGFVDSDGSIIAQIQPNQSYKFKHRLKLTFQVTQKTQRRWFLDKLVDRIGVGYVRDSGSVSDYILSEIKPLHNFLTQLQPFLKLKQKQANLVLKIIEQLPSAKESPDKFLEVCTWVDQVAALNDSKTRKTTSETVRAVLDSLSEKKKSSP
Procedure: (§1) Human embryonic kidney 293H cells (Invitrogen) were plated at a density of 1×10⁶ cells per 10 cm dish in complete medium (DMEM supplemented with 2 mM L-glutamine, penicillin (100 UI/ml), streptomycin (100 μg/ml), amphotericin B (Fongizone) (0.25 μg/ml) (Invitrogen-Life Science) and 10% FBS). The next day, cells were transfected with 3 μg of single-chain meganuclease expression vector using Lipofectamine 2000 transfection reagent (Invitrogen) according to the supplier's protocol. After 2 to 6 days of incubation at 37° C., cells were trypsinized and genomic DNA extraction was performed with the DNeasy blood and tissue kit (Qiagen) according to the supplier's protocol.
(§2) Human embryonic kidney 293H cells were transfected with a plasmid expressing a single-chain safe harbor meganuclease. After 2 to 6 days of incubation at 37° C., genomic DNA was isolated and PCR was used to amplify the genomic sequence surrounding the meganuclease target site. Sequences were then analyzed for the presence of insertions or deletions events (InDel) in the cleavage site of each safe harbor target.

SCOH-SH13 = molecular target: T2, SCOH-SH13 (artificial)
T2 chain: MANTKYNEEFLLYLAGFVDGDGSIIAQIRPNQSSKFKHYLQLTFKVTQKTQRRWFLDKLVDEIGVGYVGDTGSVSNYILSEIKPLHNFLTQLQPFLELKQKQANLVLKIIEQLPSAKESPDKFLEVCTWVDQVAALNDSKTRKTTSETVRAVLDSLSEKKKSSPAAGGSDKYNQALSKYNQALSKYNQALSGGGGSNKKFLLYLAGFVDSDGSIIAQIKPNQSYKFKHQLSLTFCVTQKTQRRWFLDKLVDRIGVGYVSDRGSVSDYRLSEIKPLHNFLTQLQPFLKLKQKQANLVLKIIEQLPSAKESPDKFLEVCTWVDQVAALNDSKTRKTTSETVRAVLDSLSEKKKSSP
Procedure: as §1, §2

[1] = molecular target: T3, QCSH61-H01a (SCOH-QCSH6-H01) (artificial)
T3 chain: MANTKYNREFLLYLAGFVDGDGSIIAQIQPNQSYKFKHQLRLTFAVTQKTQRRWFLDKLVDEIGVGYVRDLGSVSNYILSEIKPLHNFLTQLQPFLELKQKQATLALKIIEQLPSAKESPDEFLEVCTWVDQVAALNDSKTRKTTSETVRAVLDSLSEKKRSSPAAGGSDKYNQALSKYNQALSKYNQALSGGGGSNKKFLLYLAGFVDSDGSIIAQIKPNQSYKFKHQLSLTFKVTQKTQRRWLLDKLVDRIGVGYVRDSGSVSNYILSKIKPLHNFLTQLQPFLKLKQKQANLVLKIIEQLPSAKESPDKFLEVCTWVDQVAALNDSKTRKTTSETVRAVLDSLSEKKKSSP
Procedure: as §1, §2

SCOH-SH6-b12-G2_BQY = molecular target: T4, SCOH-SH6-b12-G2_BQY (artificial)
T4 chain: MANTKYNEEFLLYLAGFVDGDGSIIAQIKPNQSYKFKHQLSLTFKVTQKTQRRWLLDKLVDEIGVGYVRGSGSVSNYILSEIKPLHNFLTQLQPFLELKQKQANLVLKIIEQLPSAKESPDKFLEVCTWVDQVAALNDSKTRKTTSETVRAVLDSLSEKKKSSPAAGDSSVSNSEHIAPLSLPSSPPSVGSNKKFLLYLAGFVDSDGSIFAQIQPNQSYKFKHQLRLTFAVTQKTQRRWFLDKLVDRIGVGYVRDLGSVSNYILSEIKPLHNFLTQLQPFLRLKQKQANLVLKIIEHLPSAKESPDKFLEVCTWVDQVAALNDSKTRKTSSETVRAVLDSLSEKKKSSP
Procedure: as §1, §2

SCOH-SH6-b11-G2.2_BQY = molecular target: T5, SCOH-SH6-b11-G2.2_BQY (artificial)
T5 chain: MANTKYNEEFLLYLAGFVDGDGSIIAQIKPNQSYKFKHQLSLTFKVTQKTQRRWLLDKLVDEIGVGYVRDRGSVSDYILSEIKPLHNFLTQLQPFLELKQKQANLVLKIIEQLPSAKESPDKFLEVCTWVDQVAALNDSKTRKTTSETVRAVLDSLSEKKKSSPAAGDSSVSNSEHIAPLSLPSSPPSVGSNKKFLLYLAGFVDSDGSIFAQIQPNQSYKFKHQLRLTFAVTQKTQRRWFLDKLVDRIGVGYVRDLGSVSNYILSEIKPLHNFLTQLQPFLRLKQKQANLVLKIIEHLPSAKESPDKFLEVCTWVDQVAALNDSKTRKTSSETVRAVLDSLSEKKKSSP
Procedure: as §1, §2

[2] = molecular target: T6, QCSH61-H01d (QC-SH6-H01_V2_7E_70R75D) (artificial)
T6 chain: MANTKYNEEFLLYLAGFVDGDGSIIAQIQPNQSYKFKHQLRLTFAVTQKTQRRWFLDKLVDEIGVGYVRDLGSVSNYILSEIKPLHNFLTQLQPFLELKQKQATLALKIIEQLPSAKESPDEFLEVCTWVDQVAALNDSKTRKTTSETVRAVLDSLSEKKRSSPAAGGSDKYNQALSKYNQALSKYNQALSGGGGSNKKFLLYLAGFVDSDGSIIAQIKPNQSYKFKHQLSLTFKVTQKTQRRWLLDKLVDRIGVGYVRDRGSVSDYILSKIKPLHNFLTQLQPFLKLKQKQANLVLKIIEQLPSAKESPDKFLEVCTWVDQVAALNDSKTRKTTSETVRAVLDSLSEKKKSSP
Procedure: as §1, §2

[3] = molecular target: T7, QCSH61-H01b (QC-SH6-H01_7E) (artificial)
T7 chain: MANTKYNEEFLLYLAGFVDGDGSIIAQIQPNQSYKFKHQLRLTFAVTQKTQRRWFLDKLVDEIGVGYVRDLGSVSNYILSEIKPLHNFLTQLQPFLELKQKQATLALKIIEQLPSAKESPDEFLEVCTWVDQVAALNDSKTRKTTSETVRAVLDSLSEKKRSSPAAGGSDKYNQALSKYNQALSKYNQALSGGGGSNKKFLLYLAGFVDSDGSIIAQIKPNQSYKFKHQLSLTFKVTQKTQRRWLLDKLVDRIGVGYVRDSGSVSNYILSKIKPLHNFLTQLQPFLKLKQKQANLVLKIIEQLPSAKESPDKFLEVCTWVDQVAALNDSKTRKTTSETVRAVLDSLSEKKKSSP
Procedure: as §1, §2

SCOH-SH8 = molecular target: T8, SCOH-SH8 (artificial)
T8 chain: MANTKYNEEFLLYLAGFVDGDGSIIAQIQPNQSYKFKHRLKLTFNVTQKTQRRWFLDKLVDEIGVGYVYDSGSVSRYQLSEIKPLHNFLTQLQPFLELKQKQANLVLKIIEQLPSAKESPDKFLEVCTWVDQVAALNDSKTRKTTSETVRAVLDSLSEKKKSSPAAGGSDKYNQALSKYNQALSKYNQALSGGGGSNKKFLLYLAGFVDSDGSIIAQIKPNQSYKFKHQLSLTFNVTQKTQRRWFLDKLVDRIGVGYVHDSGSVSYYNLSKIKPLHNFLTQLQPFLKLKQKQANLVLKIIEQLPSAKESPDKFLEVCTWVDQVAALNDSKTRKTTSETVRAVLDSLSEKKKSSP
Procedure: as §1, §2

B1: SH18 target (dsDNA)
DNA 1: CTTACCCCACGTACCACAGACTGT
DNA 2: ACAGTCTGTGGTACGTGGGGTAAG
SCOH-SH18-b11-C.2
  activity: 1.2 % InDels

B2: SH13 target (dsDNA)
DNA 1: ATTACACTCTTTAAGTGATTTTAA
DNA 2: TTAAAATCACTTAAAGAGTGTAAT
SCOH-SH13
  activity: 1.5 % InDels

B3: SH6 target (dsDNA)
DNA 1: TTAATACCCCGTACCTAATATTGC
DNA 2: GCAATATTAGGTACGGGGTATTAA
[1]
  activity: 0.6 % InDels
SCOH-SH6-b12-G2_BQY
  activity: 1 % InDels
SCOH-SH6-b11-G2.2_BQY
  activity: 3 % InDels
[2]
  activity: 3.5 % InDels
[3]
  activity: 1.5 % InDels

B4: SH8 target (dsDNA)
DNA 1: ACAATCTGAGGTAAGTAATACTGA
DNA 2: TCAGTATTACTTACCTCAGATTGT
SCOH-SH8
  activity: 0.5 % InDels
